Tests used:
Maize Immature Embryos [1] = experiment: Selection of Agrobacterium-transformed immature embryos on herbicide-containing medium; type: cell-based, Zea mays; settings: Selection Medium I containing 100 nM R-Haloxyfop acid
Text: Agrobacterium-mediated transformation was used to stably integrate a chimeric gene into the plant genome, and thus generate transgenic maize cells, tissues, and plants that produce AAD1 mRNAs having miRNA target sites within the mRNA. Control tissues having no miRNA target sites in the AAD1 mRNA were also produced. Transformed tissues were selected by their ability to grow on Haloxyfop-or Bialaphos-containing medium.
Callus Selection and Regeneration of Transgenic Events: Following the co-cultivation period, embryos were transferred to Resting Medium (4.33 g/L MS salts; 1× ISU Modified MS Vitamins; 30 g/L sucrose; 700 mg/L L-proline; 3.3 mg/L Dicamba in KOH; 100 mg/L myo-inositol; 100 mg/L Casein Enzymatic Hydrolysate; 15 mg/L AgNO3; 0.5 g/L MES (2-(N-morpholino) ethanesulfonic acid monohydrate; PHYTOTECHNOLOGIES LABR.; Lenexa, K S); 250 mg/L Cefotaxime; and 7.0 gm/L agar; at pH 5.8). No more than 36 embryos were moved to each plate. The plates were wrapped with Micropore™ tape and incubated at 27° C. with continuous light at approximately 50 μmol m^−2s^−1 light intensity for 7 to 10 days. […]

Maize Immature Embryos [2] = experiment: Transient AAD1 expression in immature embryos after particle bombardment, ELISA; type: cell-based, Zea mays; settings: 24 hours after particle bombardment; co-bombardment plasmid pDAB112378 (artificial miRNA)
Text: Zea mays embryos from inbred line B104 that express AAD1 mRNAs having miRNA target sites within the mRNA were produced. Control tissues having no miRNA target sites in the AAD1 mRNA, or having no AAD1 gene expression cassette, were also produced. Other control tissues were produced that had only a YFP gene expression cassette (and no AAD1 construct). Preparations of plant transformation DNA molecules constructed as described in EXAMPLE 2 were delivered into maize B104 immature embryos via particle bombardment transformation.
Plasmid DNAs of pDAB112375, pDAB112376, pDAB112377, pDAB113016, pDAB100286, pDAB112378 and pDAB112330 were isolated and purified from Escherichia coli by standard techniques, and diluted in TE buffer (10 mM Tris HCl plus 1 mM EDTA, pH 8) to 1.0 μg/μL.
Embryo isolation and culture: (Day 1) Surface-sterilized B104 immature ears (10 to 12 days post-pollination) were used for the isolation of embryos. Excised immature embryos from 3 to 4 ears were pooled into 2 mL microfuge tubes containing 2.0 mL liquid medium (LS basal medium (Linsmaier and Skoog, (1965) Physiologia Plantarum 18:100-27) containing CHU N6 vitamins (Chu et al. (1975) Scientia Sinica 18:659-68), 700 mg/L L-Proline, 68.5 gm/L sucrose, 36 gm/L D(+) glucose, and 1.5 mg/L 2,4-D). After embryo isolation, the liquid medium was removed and discarded. Embryos were removed and placed onto plates (40 embryos per plate) containing a semi-solid osmotic medium (MS basal medium (Murashige and Skoog, (1962) Physiologia Plantarum 15:473-497), 2 mg/L Glycine, 500 μg/L Thiamine, 500 μg/L Pyroxidine, 50 μg/L Nicotinic Acid., 120 gm/L sucrose, 100 mg/L myo-inositol, and 2.4 gm/L GELRITE). The embryos were arranged in a […] within the target area for particle bombardment. Three replicate plates were prepared for each construct to be tested. All plates were incubated at 28° C. under continuous low light (50 μEm^−2 sec^−1) for 24 hours prior to particle bombardment.
Coating gold particles with DNA: (Day 2) Tubes of frozen gold particles glycerol stock were thawed on ice for a few minutes, then vortexed for 2 minutes at high speed until a uniform gold suspension was produced. Gold suspension was pipetted into sterile microcentrifuge tubes (50 μL each), with an intermediate vortexing of the particle stock between each tube to maintain a uniform suspension. 2.5 μg each of appropriate plasmid DNAs were included. […]
ELISA quantification of AAD1 and PAT proteins: Enzyme Linked Immunosorbant Assays (ELISAs) were used to measure the production of AAD1 and PAT proteins in maize cells and stably-transformed tissues. […]

B1: pDAB112377: Transient construct: ZmUbilv2/AAD1 v3/miR529 perfect target site with miR156 site mutated/ZmPer5 3′UTR (SEQ ID NO:10) (nucleic acid)
DNA: ATGGCTCATGCTGCCCTCAGCCCTCTCTCCCAACGCTTTGAGAGAATAGCTGTCCAGCCACTCACTGGTGTCCTTGGTGCTGAGATCACTGGAGTGGACTTGAGGGAACCACTTGATGACAGCACCTGGAATGAGATATTGGATGCCTTCCACACTTACCAAGTCATCTACTTTCCTGGCCAAGCAATCACCAATGAGCAGCACATTGCATTCTCAAGAAGGTTTGGACCAGTTGATCCAGTGCCTCTTCTCAAGAGCATTGAAGGCTATCCAGAGGTTCAGATGATCCGCAGAGAAGCCAATGAGTCTGGAAGGGTGATTGGTGATGACTGGCACACAGACTCCACTTTCCTTGATGCACCTCCAGCTGCTGTTGTGATGAGGGCCATAGATGTTCCTGAGCATGGCGGAGACACTGGGTTCCTTTCAATGTACACAGCTTGGGAGACCTTGTCTCCAACCATGCAAGCCACCATCGAAGGGCTCAACGTTGTGCACTCTGCCACACGTGTGTTCGGTTCCCTCTACCAAGCACAGAACCGTCGCTTCAGCAACACCTCAGTCAAGGTGATGGATGTTGATGCTGGTGACAGAGAGACAGTCCATCCCTTGGTTGTGACTCATCCTGGCTCTGGAAGGAAAGGCCTTTATGTGAATCAAGTCTACTGTCAGAGAATTGAGGGCATGACAGATGCAGAATCAAAGCCATTGCTTCAGTTCCTCTATGAGCATGCCACCAGATTTGACTTCACTTGCCGTGTGAGGTGGAAGAAAGACCAAGTCCTTGTCTGGGACAACTTGTGCACCATGCACCGTGCTGTTCCTGACTATGCTGGCAAGTTCAGATACTTGACTCGCACCACAGTTGGTGGAGTTAGGCCTGCCCGCTGAGTAGTTAGCTTAATCACCTAGAGCTCGACTCAGGCTGTACTCTCTCTCTTCACAAAGTACTCAGGTAACCTTTAAACTGAGGGCACTGAAGTCGCTTGATGTGCTGAATTGTTTGTGATGTTGGTGGCGTATTTTGTTTAAATAAGTAAGCATGGCTGTGATTTTATCATATGATCGATCTTTGGGGTTTTATTTAACACATTGTAAAATGTGTATCTATTAATAACTCAATGTATAAGATGTGTTCATTCTTCGGTTGCCATAGATCTGCTTATTTGACCTGTGATGTTTTGACTCCAAAAACCAAAATCACAACTCAATAAACTCATGGAATATGTCCACCTGTTTCTTGAAGAGTTCATCTACCATTCCAGTTGGCATTTATCAGTGTTGCAGCGGCGCTGTGCTTTGTAACATAACAATTGTTACGGCATATATCCAA
modifications: expression cassette; (969)..(1333) ZmPer5 3′UTR
Maize Immature Embryos [1]
  fate of transformed embryos on Haloxyfop-containing medium: grew on Haloxyfop-containing medium and regenerated transgenic plants
Maize Immature Embryos [2]
  Mean AAD1 Amount: 249 ng/mL

B2: pDAB112376: Transient construct: ZmUbilv2/AAD1 v3/WT miR529 target site with miR156 site mutated/ZmPer5 3′UTR (SEQ ID NO:9) (nucleic acid)
DNA: ATGGCTCATGCTGCCCTCAGCCCTCTCTCCCAACGCTTTGAGAGAATAGCTGTCCAGCCACTCACTGGTGTCCTTGGTGCTGAGATCACTGGAGTGGACTTGAGGGAACCACTTGATGACAGCACCTGGAATGAGATATTGGATGCCTTCCACACTTACCAAGTCATCTACTTTCCTGGCCAAGCAATCACCAATGAGCAGCACATTGCATTCTCAAGAAGGTTTGGACCAGTTGATCCAGTGCCTCTTCTCAAGAGCATTGAAGGCTATCCAGAGGTTCAGATGATCCGCAGAGAAGCCAATGAGTCTGGAAGGGTGATTGGTGATGACTGGCACACAGACTCCACTTTCCTTGATGCACCTCCAGCTGCTGTTGTGATGAGGGCCATAGATGTTCCTGAGCATGGCGGAGACACTGGGTTCCTTTCAATGTACACAGCTTGGGAGACCTTGTCTCCAACCATGCAAGCCACCATCGAAGGGCTCAACGTTGTGCACTCTGCCACACGTGTGTTCGGTTCCCTCTACCAAGCACAGAACCGTCGCTTCAGCAACACCTCAGTCAAGGTGATGGATGTTGATGCTGGTGACAGAGAGACAGTCCATCCCTTGGTTGTGACTCATCCTGGCTCTGGAAGGAAAGGCCTTTATGTGAATCAAGTCTACTGTCAGAGAATTGAGGGCATGACAGATGCAGAATCAAAGCCATTGCTTCAGTTCCTCTATGAGCATGCCACCAGATTTGACTTCACTTGCCGTGTGAGGTGGAAGAAAGACCAAGTCCTTGTCTGGGACAACTTGTGCACCATGCACCGTGCTGTTCCTGACTATGCTGGCAAGTTCAGATACTTGACTCGCACCACAGTTGGTGGAGTTAGGCCTGCCCGCTGAGTAGTTAGCTTAATCACCTAGAGCTCGACTCAGGCTGTACTCTCTTACTTCACAAAGTACTCAGGTAACCTTTAAACTGAGGGCACTGAAGTCGCTTGATGTGCTGAATTGTTTGTGATGTTGGTGGCGTATTTTGTTTAAATAAGTAAGCATGGCTGTGATTTTATCATATGATCGATCTTTGGGGTTTTATTTAACACATTGTAAAATGTGTATCTATTAATAACTCAATGTATAAGATGTGTTCATTCTTCGGTTGCCATAGATCTGCTTATTTGACCTGTGATGTTTTGACTCCAAAAACCAAAATCACAACTCAATAAACTCATGGAATATGTCCACCTGTTTCTTGAAGAGTTCATCTACCATTCCAGTTGGCATTTATCAGTGTTGCAGCGGCGCTGTGCTTTGTAACATAACAATTGTTACGGCATATATCCAA
modifications: pDAB112377 expression cassette; (918)..(954) modified tsh4 target site; (969)..(1333) ZmPer5 3′UTR
Maize Immature Embryos [1]
  fate of transformed embryos on Haloxyfop-containing medium: grew on Haloxyfop-containing medium and regenerated transgenic plants
Maize Immature Embryos [2]
  Mean AAD1 Amount: 317 ng/mL

Source: US12649925B2, “Tissue-specific expression and hybrid plant production” (Dow AgroSciences LLC, priority 2013, dated 2026)
